The record followed here is patent US20250222125A1, “Anti-FGFR2b Antibodies, Conjugates and Methods of Use” (BeiGene, Ltd., priority 2024, published 2025).

The term Kd denotes the constant that tells how readily two partners part at equilibrium. Low readings indicate a tighter complex, high ones a looser complex. As a reminder, the EC50 is the concentration needed to bring the measured effect to its halfway point.

Assay [1] has as its system Cyno FGFR2b. As to the kind of experiment: ELISA binding to recombinant cyno FGFR2b (Example 11).
Assay [2] addresses T1, human FGFR2b (Homo sapiens, UniProt P21802). As to the kind of experiment: SPR affinity determination, human FGFR2b (Example 9). It counts as binding. Particulars: for Kd: kd/ka. The method, then: (§1) For affinity determination, antibodies were captured by anti-human Fc antibodies, and used in the affinity assay based on surface plasmon resonance (SPR) technology. SPR signals were analyzed to calculate the association rates (ka) and dissociation rates (kd) by using the one-to-one Langmuir binding model (BIA Evaluation Software, GE Life Sciences). The equilibrium dissociation constant (KD) was calculated as the ratio of kd/ka. Rmax represents the maximal feasible SPR signal generated by an interaction between a ligand-analyte pair and is represented in response units (RU). BGAh9239 and BGA9179 show similar binding profiles to human FGFR2b and cyno FGFR2b, and are similar to their parental antibodies BGAm1823 and BGAm1371, respectively.

The target in assay [3] is T2, Human FGFR2c (Homo sapiens, UniProt P21802). As to the kind of experiment: ELISA binding to recombinant human FGFR2c (Example 11). Particulars: for Emax (A450): human FGFR2c; for binding to human FGFR2c: in words.
For assay [4], the target named is T3, soluble human FGFR2b proteins (Homo sapiens, UniProt P21802).
T3 construct: soluble human FGFR2b proteins (his tag, in-house generated); His tag; made in house
As to the kind of experiment: SPR binding kinetics (Biacore 8K, Example 5). Particulars: room temperature. How it is done: The binding affinity and kinetics of purified anti-FGFR2b antibodies were determined by surface plasmon resonance (Biacore 8K, GE Life Sciences) at room temperature. Briefly, mouse anti-human IgG Fc antibody was immobilized via amine coupling onto a activated CM5 biosensor chip (Cat. No. BR100530, GE Life Sciences). Purified monoclonal antibody candidates were flowed over the chip surface and captured by anti-human IgG antibody. Then a serial dilution of soluble human FGFR2b proteins (his tag, in-house generated) were injected over the antibodies captured surface and changes in surface plasmon resonance signals were analyzed to calculate the association rates (kon) and dissociation rates (koff) by using the one-to-one Langmuir binding model (BIA Evaluation Software, GE Life Sciences). The equilibrium dissociation constant (KD) was calculated as the ratio koff/kon.
(In SPR one partner is held on a chip, and binding of the other changes the refractive index at the surface.)

For assay [5], the target named is T1, human FGFR2b. As to the kind of experiment: FACS binding to native FGFR2b on Expi293 cells, human FGFR2b (Example 10). Particulars: Expi293 cells overexpressing human FGFR2b. The method, then:
(§2) To evaluate the binding activity of anti-FGFR2b antibodies to native FGFR2b on living cells, Expi293 cells were engineered to overexpress human FGFR2b, cyno FGFR2b, mouse FGFR2b, or human FGFR2c. Expi293 cells expressing antigens were seeded in 96-well plates, and were incubated with serially diluted anti-FGFR2b antibodies. Goat anti-human IgG [Alexa Fluor® 647] […] The change of mean fluorescent intensity (MFI) of humanized candidates BGAh9239 and BGAh9179 was measured by flow cytometry. EC50 values for dose-dependent binding to native human FGFR2b, cyno FGFR2b, mouse FGFR2b, and human FGFR2c were determined using sigmoidal dose-response curves of nonlinear fit from GraphPad Prism™.
In general terms: A flow cytometer gives signals particle by particle.

The subject of assay [6] is phosphorylated FGFR in SNU-16 cells. As to the kind of experiment: Inhibition of FGFR2 signaling in SNU-16 cells (Western blot of pFGFR). It counts as cell-based. Particulars: antibody 10 μg/ml, 2 hours; for FGF10-induced FGFR phosphorylation: FGF10 10 ng/ml. How it is done:
Inhibition of the FGFR2 signaling pathway by the humanized antibodies was investigated. SNU-16 cells were grown in RPMI-1640 medium with 10% FBS, collected and washed twice with free medium and then seeded in 12-well plates at 1.5E6 cells/well in serum-free RPMI-1640. The plates were incubated at 37° C., 5% CO2, and 95% humidity in an incubator overnight. Anti-FGFR2b antibodies at a concentration of 10 μg/ml were added to the assay plates. Recombinant human FGF7 or FGF10 protein (10 ng/ml) in the presence of heparin (5 μg/ml) was added to the assay plates. The plates were incubated in a 37° C., 5% CO2, 95% humidity incubator for 2 hours. Following 2 hours incubation, cells were collected and washed twice with cold PBS. NP40 lysis buffer containing 1×PMSF and 1× Protease plus phosphatase inhibitors were added to the cell pellets. The mixture was pipetted up and down to suspend the pellet. The mixture was inverted gently and each placed for 10 minutes on ice, for a total of 30 minutes. The mixture was centrifuged at 12000× rpm for 10 minutes to pellet the cell debris. The supernatant was transferred to a new tube to quantify total protein concentration by BCA Kit. The protein samples were then split and stored at −80° C. for further Western blotting to detect the expression of pFGFR and total FGFR2.
Western blotting procedure: The completely thawed protein samples were mixed with 4×SDS loading buffer and were heated for 10 min at 37° C. Then the mixtures were centrifuged at ˜3500×rpm for 5 min. Equal amounts of proteins were loaded into an SDS-PAGE gel, whereafter proteins were transferred to PVDF membranes using iBlot. The membranes were then subjected to Western blotting analysis, focusing on phosphorylated FGFR and total FGFR2.

Assay [7] has as its target T4, Mouse FGFR2b (Mus musculus, UniProt P21803).
T4 construct: expressed in transfected cells; host or cells: Expi293
As to the kind of experiment: FACS binding on Expi293 cells, mouse FGFR2b (Example 10). Particulars: Expi293 cells overexpressing mouse FGFR2b. How it is done:
as §2

The subject of assay [8] is Cyno FGFR2b. As to the kind of experiment: SPR affinity determination, cyno FGFR2b (Example 9). It counts as binding. How it is done: as §1
For assay [9], the target named is T2, Human FGFR2c. As to the kind of experiment: FACS binding on Expi293 cells, human FGFR2c (Example 10). Particulars: for Emax (MFI): Expi293 cells overexpressing human FGFR2c. The method, then: as §2
For assay [10], the target named is T1, human FGFR2b. As to the kind of experiment: ELISA binding to recombinant human FGFR2b (Example 11). In general terms: In an ELISA, binding on a coated surface is turned into a signal by an enzyme label.
Assay [11] concerns BaF3_hFGFR2b OE cells. As to the kind of experiment: Ligand-induced proliferation inhibition assay in BaF3_hFGFR2b OE cells. It counts as cell-based. Particulars: antibody 10 μg/ml, heparin 5 μg/ml, 72 hours. How it is done: The inhibition activity of antibody on ligand-induced cell proliferation was evaluated in an FGFR2b engineered BaF3 cell line system (BaF3_hFGFR2b OE). BaF3 cells are dependent on interleukin-3 (IL-3) for growth. The BaF3 system allows for testing of kinases and kinase inhibitors. Some protein kinases can render BaF3 cells to be independent of IL-3, whereas kinase inhibitors antagonize this effect. Cells were seeded in 96-well plates at 30,000 cells/well in RPMI-1640 medium containing 10% fetal bovine serum. Anti-FGFR2b antibodies at a concentration of 10 μg/ml were added to the assay plates. Recombinant human FGF7 or FGF10 protein (40 ng/ml) in the presence of heparin (5 μg/ml) was added to the assay plates. The plates were incubated at 37° C., 5% CO2, 95% humidity in an incubator for 72 hours. Following incubation, 50 μl Cell Titer Glo reagent was added to each well and the plates were mixed for 1 min and then incubated at RT for 10 min. Luminescence signals were detected and recorded.
The Ba/F3 system is used to investigate downstream oncogenic signaling pathways and the susceptibility of driver variants to therapeutics. Driver-addicted Ba/F3 cells die when the driver-engaged signaling pathway is inhibited, and this effect can be rescued by re-introduction of […].
FIGS. 6 and 7 show the results of Ba/F3 proliferation assays. The net growth on Ba/F3 cells overexpressing FGFR2b is reported after treatment with anti-FGFR2b antibodies of the present disclosure. Normal Ba/F3 cells die shortly after withdrawal of exogenous […]. […] Comparator BGA2311 binds at the N-terminus and is not considered to be a ligand blocker. Thus, BGAm1371 may partially block the FGFR2b signaling pathway, such as the signaling pathway mediated by FGF7.

T4 sequence (P21803 22-707 isoform P21803-2 limits assumed): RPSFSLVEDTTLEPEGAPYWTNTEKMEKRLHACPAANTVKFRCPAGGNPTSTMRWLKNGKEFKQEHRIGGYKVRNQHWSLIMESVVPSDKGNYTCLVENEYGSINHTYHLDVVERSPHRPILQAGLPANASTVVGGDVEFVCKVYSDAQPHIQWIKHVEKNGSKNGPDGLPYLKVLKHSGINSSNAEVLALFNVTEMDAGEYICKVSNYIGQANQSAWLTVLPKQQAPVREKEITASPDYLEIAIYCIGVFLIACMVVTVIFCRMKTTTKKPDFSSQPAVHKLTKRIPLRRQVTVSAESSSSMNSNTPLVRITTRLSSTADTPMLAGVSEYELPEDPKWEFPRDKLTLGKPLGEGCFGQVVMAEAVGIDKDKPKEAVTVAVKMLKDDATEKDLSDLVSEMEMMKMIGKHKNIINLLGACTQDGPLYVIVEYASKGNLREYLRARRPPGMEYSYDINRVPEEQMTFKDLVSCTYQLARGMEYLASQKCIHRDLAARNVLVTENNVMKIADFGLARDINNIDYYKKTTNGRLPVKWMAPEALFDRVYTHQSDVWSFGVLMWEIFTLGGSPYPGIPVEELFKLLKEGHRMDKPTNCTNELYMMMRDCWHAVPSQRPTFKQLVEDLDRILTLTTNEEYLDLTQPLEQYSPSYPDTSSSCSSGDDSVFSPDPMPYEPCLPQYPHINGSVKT
T1 sequence (P21802 22-822 isoform P21802-3 limits assumed): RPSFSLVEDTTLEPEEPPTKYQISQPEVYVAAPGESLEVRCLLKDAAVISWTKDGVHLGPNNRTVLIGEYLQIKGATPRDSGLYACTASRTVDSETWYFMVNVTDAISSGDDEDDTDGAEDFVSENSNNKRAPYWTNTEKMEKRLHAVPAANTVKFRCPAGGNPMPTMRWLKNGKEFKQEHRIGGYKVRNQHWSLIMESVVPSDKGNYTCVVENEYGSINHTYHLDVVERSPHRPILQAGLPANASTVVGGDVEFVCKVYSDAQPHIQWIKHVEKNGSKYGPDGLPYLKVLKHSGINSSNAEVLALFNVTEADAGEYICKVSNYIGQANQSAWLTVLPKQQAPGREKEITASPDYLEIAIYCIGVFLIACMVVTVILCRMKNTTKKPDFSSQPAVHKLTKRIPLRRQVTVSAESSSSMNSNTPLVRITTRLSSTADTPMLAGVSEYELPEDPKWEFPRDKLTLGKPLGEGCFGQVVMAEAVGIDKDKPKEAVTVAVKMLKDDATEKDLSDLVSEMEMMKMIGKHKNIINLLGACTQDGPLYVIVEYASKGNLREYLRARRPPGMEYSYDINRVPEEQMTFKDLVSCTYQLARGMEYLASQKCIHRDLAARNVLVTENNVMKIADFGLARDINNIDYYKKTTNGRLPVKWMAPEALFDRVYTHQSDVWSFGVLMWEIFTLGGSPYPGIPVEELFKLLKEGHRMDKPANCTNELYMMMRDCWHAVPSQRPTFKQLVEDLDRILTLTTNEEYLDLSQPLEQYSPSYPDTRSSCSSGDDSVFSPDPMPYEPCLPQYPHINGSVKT
T3 sequence (P21802 22-378 isoform P21802-3 limits assumed): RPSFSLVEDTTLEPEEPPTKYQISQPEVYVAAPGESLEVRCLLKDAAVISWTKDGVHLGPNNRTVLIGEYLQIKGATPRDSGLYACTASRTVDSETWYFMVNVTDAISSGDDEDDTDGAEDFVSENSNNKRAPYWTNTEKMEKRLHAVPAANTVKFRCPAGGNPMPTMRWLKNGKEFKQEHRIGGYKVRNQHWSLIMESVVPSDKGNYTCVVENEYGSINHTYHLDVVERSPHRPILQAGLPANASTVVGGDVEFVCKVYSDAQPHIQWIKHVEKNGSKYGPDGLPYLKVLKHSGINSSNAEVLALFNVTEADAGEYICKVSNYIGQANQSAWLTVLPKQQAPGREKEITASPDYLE
T2 sequence (P21802 22-821): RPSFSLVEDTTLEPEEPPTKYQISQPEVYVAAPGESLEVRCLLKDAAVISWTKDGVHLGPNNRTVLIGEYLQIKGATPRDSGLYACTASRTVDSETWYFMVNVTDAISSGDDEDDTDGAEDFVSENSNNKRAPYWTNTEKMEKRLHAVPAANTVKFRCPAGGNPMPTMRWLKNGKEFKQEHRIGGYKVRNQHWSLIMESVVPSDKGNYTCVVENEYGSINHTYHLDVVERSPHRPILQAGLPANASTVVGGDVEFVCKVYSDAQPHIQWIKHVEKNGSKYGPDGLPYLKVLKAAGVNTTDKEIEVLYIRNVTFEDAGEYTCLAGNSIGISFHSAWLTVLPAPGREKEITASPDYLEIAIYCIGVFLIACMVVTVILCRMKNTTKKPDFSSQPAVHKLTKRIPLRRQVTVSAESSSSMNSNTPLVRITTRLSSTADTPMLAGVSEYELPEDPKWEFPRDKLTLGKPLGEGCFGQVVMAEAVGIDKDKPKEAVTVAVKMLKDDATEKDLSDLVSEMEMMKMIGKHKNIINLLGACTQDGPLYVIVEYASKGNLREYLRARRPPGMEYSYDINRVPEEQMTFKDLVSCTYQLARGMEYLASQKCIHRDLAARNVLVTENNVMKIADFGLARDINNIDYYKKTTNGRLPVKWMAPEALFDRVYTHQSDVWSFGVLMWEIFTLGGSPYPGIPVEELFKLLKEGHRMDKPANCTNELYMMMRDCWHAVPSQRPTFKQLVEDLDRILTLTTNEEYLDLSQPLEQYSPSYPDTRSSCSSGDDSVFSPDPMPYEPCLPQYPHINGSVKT

B1: BGAh9179: humanized anti-FGFR2b IgG1 antibody from murine BGAm1371; VH SEQ ID NO: 21, VL SEQ ID NO: 22 (antibody, V domains shown)
VH: QVQLVQSGAEVKKPGASVKVSCKASGYTITDTYIHWVRQAPGQGLEWMGRIDPAEGNTMFASEFQGRVTMTADTSTSTVYMELSSLRSEDTAVYYCARSKIHYDYDEGFAYWGQGTLVTVSS
VL: DIVLTQSPDSLAVSLGERATINCRASESVDDYGYSFLHWYQQKPGQPPKLLIYRASNLESGVPDRFSGSGSGTDFTLTISSLQAEDVAVYYCQQSNQNPRTFGGGTKVEIK
modifications: Synthetic: VH AA; Synthetic: VL AA
With B1, the “Emax (A450)” value in assay [1] stood at 2.953 A450; in [3], 0.086 A450; in assay [10], 2.993 A450. In assay [2], this molecule returned an Rmax of 38.3 RU. In addition, the ka in assay [2] is 8.16E+04 M^−1S^−1; in [4] (antibody captured), 80600 M⁻¹ s⁻¹; in assay [8], 8.37E+04 M^−1S^−1. Moreover, the kd in assay [2] is 1.78E−03 S^−1; in [4] (antibody captured) it was 0.00112 s⁻¹; in assay [8] it was 1.72E−03 S^−1. The Kd in assay [2] worked out at 21.8 nM; in assay [4] (koff/kon), 13.9 nM. In addition, in [3], the “binding to human FGFR2c” value is “no detectable binding”. Further, the half-maximal effective concentration (EC50) in [5] stood at 3.29 nM; in assay [7], 4.25 nM; in assay [10] it was 0.0518 nM. Also, the “Emax (MFI)” value was 2977577 MFI in assay [5], 5145011 MFI in assay [7] and 21749 MFI in assay [9]. For the same molecule, in assay [6], the “FGF10-induced FGFR phosphorylation” value is “little or no down-regulation”. For the same molecule, the “binding to native human FGFR2c” value in [9] (living Expi293 cells, in words) is reported as “no detectable binding”.

B2: BGAm1823: parental murine anti-FGFR2b antibody; VH SEQ ID NO: 28, VL SEQ ID NO: 30 (antibody, V domains shown)
VH: EVQLQQSGAELVKPGASVKISCKASGYAFSIYWMNWVKQRPGKGLEWIGQIYPENGDTNYNGKFKGKATLTADKSSSTAYMHLSSLTSEDSAVYFCARGGFDYWGQGTTLTVSS
VL: NIVMTQSPASLSASVGETVTITCRASENIYSNLAWYQQKQGKSPQLLVYTATNLADGVPSRFSGSGSGTQFSLKINSLQPEDFGSYYCQHFYGILYTFGSGTRLEIK
modifications: Synthetic: VH AA; Synthetic: VL AA
In the case of B2, the “Emax (A450)” value in assay [1] was 2.996 A450. In [2], this molecule returned an Rmax of 85.7 RU, a ka of 7.63E+04 M^−1S^−1, a kd of 1.85E−03 S^−1 and a Kd of 24.2 nM. In addition, in assay [3], the “Emax (A450)” value was 0.116 A450 and the “binding to human FGFR2c” value is “no detectable binding”. For the same molecule, in assay [5], the EC50 stood at 2.12 nM and the “Emax (MFI)” value is 3092441 MFI. The “inhibition of FGF7-induced BaF3_hFGFR2b cell proliferation” value in assay [11] (FGF7 40 ng/ml) is on record as “potently inhibit”. The “inhibition of FGF10-induced BaF3_hFGFR2b cell proliferation” value in assay [11] (FGF10 40 ng/ml) is on record as “potently inhibit”. Further, the “FGF7-induced FGFR phosphorylation” value in assay [6] (FGF7 10 ng/ml) is listed as “down-regulation of phosphorylated FGFR”. The “FGF10-induced FGFR phosphorylation” value in [6] is on record as “down-regulation of phosphorylated FGFR”. In assay [7], the EC50 was determined as 3.37 nM and the “Emax (MFI)” value came to 5194795 MFI. In [8], this molecule had a ka of 7.35E+04 M^−1S^−1 and a kd of 1.80E−03 S^−1. Further, the “Emax (MFI)” value in [9] amounted to 22634 MFI. Also, in assay [10], the EC50 came out at 0.0442 nM and the “Emax (A450)” value was 2.952 A450.
